In the supplement of paper PMC9170038:
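Note: bound reporter read as fluorescence of individual clusters on recovered sequencing chips by microscopy, with normalized cluster intensities fitted with a binding model.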

The sequences below were run on K4 kissing-loop RNA reporter (assay: apparent KD of K4 kissing-loop reporter; higher = weaker reporter binding). Conditions: Eterna round: R107; input ligand: arginine 13.2 mM.
Experimental: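 RNA-MaP round R107: designed RNA switches with theophylline, tryptophan, arginine or FMN aptamers are transcribed on-chip within common flanks. They are titrated with a labelled K4 kissing-loop RNA reporter in RNA-MaP buffer (100 mM Tris pH 7.5, 80 mM KCl, 4 mM MgCl2), without ligand or with the indicated ligand. Median apparent KD per design.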
In the case of “GGGAGAAGUGGUGUUGAUUAAGAAGCGGAAGGAGCGCCGAAGAAGGCAGGUAGGUCGCCGAAAUAUAGUGAUGUUAUAUAAAGGG [ExArg.B]”, the “apparent KD of K4 kissing-loop reporter” value is reported as 184 nM.
For “GGGUCUGUCGGAAGGAGCGCACUAUGGAGUGAUGUUCCAUGACCGCACAGCUUGCGGUCAGUGCAGGUAGGUCGCCGAUAGCUUU [Usquso]”, the “apparent KD of K4 kissing-loop reporter” value was 169 nM.
“AUUUGUUACCUUAUAGGAGUGAUGUUCUUGCGAGGACCGGUACGGCCGCCACUCGCGCUGGCGCCUAGCCUCGGACCGUUAAUUC [theeternabot_exclusion_KL_Trp_A_25]” was tested, and the “apparent KD of K4 kissing-loop reporter” value was 325 nM.
For “CCUUUCAGUUACGAUACCAGUCUAAUAUAUUUGAUCAAUACCCUCGCCGAGUGAUGUUCGGACCCUUGGCAGCGUCUGGGACAGG [gbbymullin]”, the “apparent KD of K4 kissing-loop reporter” value was 428 nM.
With “CGUGCCCAGCCGGAUACCAGUGACCCGCUGGGAACCGCGGGCCCAGAGUGAUGUUCGGGACACCCUUGGCAGCCGCCUGGGCGGG [#2 Same State - Theophylline B Attempt #15 (HarryS)]” the “apparent KD of K4 kissing-loop reporter” value was 392 nM.
“UGAGGAGAAUAUGAUACCAGCAGAGAGAGAGAGGAAGUAUAGUGAUGUUAUAUGAGAUAAUGCCCUUGGCAGCAUAAGAAGAAGG [#19 K4 Theophylline B Same State]” was tested, and the “apparent KD of K4 kissing-loop reporter” value was 104 nM.
In the case of “UUUAUUAAGACGGCCGCCACUGAUUCAUAGUGAUGUUAUGAUAUAAUUUUAGUGAUAUGCAUUAGCAGGACCGGGUCAAUUAUUA [JR_ExcTryptoB_Sub017]”, the “apparent KD of K4 kissing-loop reporter” value is reported as 146 nM.
For “AAAAUAAAUAGCAGUCACGGAGUGAUGUUCCGAGGACCGGUACGGCCGCCACUCGACCAUCAUAAGAUGGAAUGGCGAGACUGCA [#SwitchBubble 21 #K4Early]”, the “apparent KD of K4 kissing-loop reporter” value was 135 nM.
“AGUACAGACACGGCCGCCACUCAGAAGAAGAUAGUAGUGAUGUUACUGAUGAUGAGAAUAAUAAAGAGGACCGGGUGUUGUGCAA [#09 K4 Tryptophan B Same State]” was tested, and the “apparent KD of K4 kissing-loop reporter” value was 100 nM.
“CAUACGAAGCAGUGAUGUUGCUUAUGAGAAGGAGCGCACGAAAGUGCAGGUAGGUCGCUCAGCCAUGUGGACGAAAACGUCCACA [whbob_SS_Arginine_A_sa112]” was tested, and the “apparent KD of K4 kissing-loop reporter” value was 273 nM.
In the case of “UUCUGCAUCUCGGCCGCCACUCACUAGUGAUGUUAGUAAGGAGCGACUAGACAUGUCCCGUUAUUGAGGACCGGGAGAGGCUCUU [#13 K4 Tryptophan B Exclusion]”, the “apparent KD of K4 kissing-loop reporter” value is reported as 162 nM.
“UGCAUCAGUGCCUUUGAUCUAUUCCUGGAUACCAGAUCCUACUUGAUCCCUUGGCAGCCAUACGGGAGUGAUGUUCCAUGUAUCC [theeternabot_exclusion_KL_Theo_A_43]” was tested, and the “apparent KD of K4 kissing-loop reporter” value was 199 nM.
With “AUAAUAUUGCGAGGAUAUCCUUCCCACGUCGAAGUACCGUGCUUGAUGGAGUGAUGUUCGAUCAGAGGAGAAGGCGCGGUGUUGU [Same State FMN B GF23]” the “apparent KD of K4 kissing-loop reporter” value was 543 nM.
With “AACUCUCAGGCACCUGAGUGAUGUUCAGGCCGAGGACCGGUACGGCCGCCACUCGGGCCUGAGAGAGGUUAUCAAAGAUAGCCAA [Omei KL Tryp A SS A v2]” the “apparent KD of K4 kissing-loop reporter” value was 366 nM.
With “AUGCAUCAGACUUGAUACGGUGAAAUAGCCCGAGGACCGGUACGGCCGCCACUCGGUCCAGUGAUGUUGGAUAAUUAAUCUAGGU [theeternabot_sameState_KL_Trp_A_34]” the “apparent KD of K4 kissing-loop reporter” value was 256 nM.
For “GGGUGGCAGGCGGCCGCCACUCUGAGCACCCACUGAGUGAUGUUCGUGGCGUAAGACUGUUCGUAGAGGACCGGGUUUGUUGUUC [Same State Tryptophan B GF 23]”, the “apparent KD of K4 kissing-loop reporter” value was 143 nM.
In the case of “UAAUGCAUGACGGCCGCCACUAGUACUGGAGUGAUGUUGUGGUACGGCGGCAGUAUAGGGUGGACUAGGACCGGGUCAUGCAUAU [KL-XTryp-B11 #analogue]”, the “apparent KD of K4 kissing-loop reporter” value is reported as 443 nM.
With “AUUUUUUUGUCAGGAUAUUAGUGUUGGUUUGGUUUGUUAGUGAUGUUGAUAUUUGUUUUAUGUAUUUAAGAAGGGAUUUAGCUGU [ppdemullin]” the “apparent KD of K4 kissing-loop reporter” value was 359 nM.
With “UGUCAUUGGUCGGCCGCCACUUCGUGUGGAGUGAUGUUUUGUAGAUUGUGUUGAAAGGUAUGGUGAAGGACCGGGACCGAUGACU [FiskerMod 21 - Jieux - Same State - Tryptophan B]” the “apparent KD of K4 kissing-loop reporter” value was 368 nM.
“AGAUUCGACACGGCCGCCACUUCCGGUGGCUGGUGUCAUGGUGCGCGUGAGUGAUGUUUAUGUGGAAGGACCGGGUGUUGAGUCU [whbob_Ex_Tryp_B_w41]” was tested, and the “apparent KD of K4 kissing-loop reporter” value was 525 nM.
With “GAUUCCCAAGCGGCCGCCACUUAUAGUGAUGUUAUAGGGACUGCGGAUCAGGACAAUCAUACAUAAAGGACCGGGCUAUUCUGAC [theeternabot_exclusion_KL_Trp_B_1]” the “apparent KD of K4 kissing-loop reporter” value was 246 nM.
For “CCUAGUGAUGUUAGGUCGUGCUCCUAUGAUACCAGCGUAGUCACUCGCCCUUGGCAGCAUUCCUUAUAAGGCGGUCGGGCGCGGU [theeternabot_sameState_KL_Theo_A_34]”, the “apparent KD of K4 kissing-loop reporter” value was 104 nM.
“AGUGAUGUUUUUUUUAAGAGUGAUGUUUUUCGAGGACCGGUACGGCCGCCACUCGAGUGAUGAGUGCGGUGUUGUGAUGUUUAGU [ewmullin]” was tested, and the “apparent KD of K4 kissing-loop reporter” value was 402 nM.
With “UCCUAUACCCUUCCCGGACGCCGUGGAGAUACCAGCCACGUAGCGGGCCCUUGGCAGCUCGAGUGAUGUUCGAGAUCGUCAGGAU [Veteve]” the “apparent KD of K4 kissing-loop reporter” value was 124 nM.

Same assay, conditions: Eterna round: R107; input ligand: none
“CGCCGUAAGGCGGUCGCUCCCACUCCGGAAGGAGCGCCCGCAAGGGCAGGUAGGUCGCCGGAGUGAUGUUCCGGUGGAGGGACCG [#2 Exclusion - Arginine A Attempt #7 (Inspired by Omei)]” was tested, and the “apparent KD of K4 kissing-loop reporter” value was 260 nM.
With “UUAGCUCUAUAGAGCAAGAGGUCAACUGAUACCAGAGGCUAUAGCCUCCCUUGGCAGCGGAACGAGUGAUGUUCGAGACCUCAUU [AK6 SS Theophylline A]” the “apparent KD of K4 kissing-loop reporter” value was 1560 nM.
With “AUAAAUUUGUAGUGAUGUUGCAAGUUAGUCAAGGAUAUCAGGAAACUGAGAAGGUGAUAUCUCCUUUACUUGCAACUAGGAGGAG [KL-SSFMN-A11]” the “apparent KD of K4 kissing-loop reporter” value was 91 nM.
With “GUGCGGUGGAGGUUACCGCUACUCUGAGAAGGAGCGCAGAUGACUGCAGGUAGGUCGCUUAGAGCUUGCAGUGAUGUUGCAAGUU [Anquatbiat]” the “apparent KD of K4 kissing-loop reporter” value was 159 nM.
For “GGAGGUUGGUGCGAUACCAGACCUGCAGUGAUGUUGCGCCAAAGUGAGUGAUGUUCACCGGUCCCUUGGCAGCGCGUCCCUUUAG [Same State Theophylline B GF 15]”, the “apparent KD of K4 kissing-loop reporter” value was 1190 nM.
“CGGUUAUAGCAGGAUACCAGUACCCAUUAUGUACGUUUAUAGUAGAGUGAUGUUCUAAAGUACCCUUGGCAGCUUCCCGUGACCC [#23 K4 Theophylline B Exclusion]” was tested, and the “apparent KD of K4 kissing-loop reporter” value was 168 nM.
For “UUAGGAGUGGGAGGAUAUCCUAAUGUGGGUGAUGUUAGCGAUGUUGAAAGUGUAGUGAUGUUGUGCGGAGAAGGUCCAGUGUUGA [BDazzled - #12 - Exc. FMN B]”, the “apparent KD of K4 kissing-loop reporter” value was 175 nM.
“GGGAGAAGUGGUGUUGAUUAAGAAGCGGAAGGAGCGCCGAAGAAGGCAGGUAGGUCGCCGAAAUAUAGUGAUGUUAUAUAAAGGG [ExArg.B]” was tested, and the “apparent KD of K4 kissing-loop reporter” value was 137 nM.
In the case of “GGGUCUGUCGGAAGGAGCGCACUAUGGAGUGAUGUUCCAUGACCGCACAGCUUGCGGUCAGUGCAGGUAGGUCGCCGAUAGCUUU [Usquso]”, the “apparent KD of K4 kissing-loop reporter” value is reported as 197 nM.
“AUUUGUUACCUUAUAGGAGUGAUGUUCUUGCGAGGACCGGUACGGCCGCCACUCGCGCUGGCGCCUAGCCUCGGACCGUUAAUUC [theeternabot_exclusion_KL_Trp_A_25]” was tested, and the “apparent KD of K4 kissing-loop reporter” value was 635 nM.
With “CCUUUCAGUUACGAUACCAGUCUAAUAUAUUUGAUCAAUACCCUCGCCGAGUGAUGUUCGGACCCUUGGCAGCGUCUGGGACAGG [gbbymullin]” the “apparent KD of K4 kissing-loop reporter” value was 525 nM.
“CGUGCCCAGCCGGAUACCAGUGACCCGCUGGGAACCGCGGGCCCAGAGUGAUGUUCGGGACACCCUUGGCAGCCGCCUGGGCGGG [#2 Same State - Theophylline B Attempt #15 (HarryS)]” was tested, and the “apparent KD of K4 kissing-loop reporter” value was 1100 nM.
“UGAGGAGAAUAUGAUACCAGCAGAGAGAGAGAGGAAGUAUAGUGAUGUUAUAUGAGAUAAUGCCCUUGGCAGCAUAAGAAGAAGG [#19 K4 Theophylline B Same State]” was tested, and the “apparent KD of K4 kissing-loop reporter” value was 111 nM.
For “UUUAUUAAGACGGCCGCCACUGAUUCAUAGUGAUGUUAUGAUAUAAUUUUAGUGAUAUGCAUUAGCAGGACCGGGUCAAUUAUUA [JR_ExcTryptoB_Sub017]”, the “apparent KD of K4 kissing-loop reporter” value was 166 nM.
With “AAAAUAAAUAGCAGUCACGGAGUGAUGUUCCGAGGACCGGUACGGCCGCCACUCGACCAUCAUAAGAUGGAAUGGCGAGACUGCA [#SwitchBubble 21 #K4Early]” the “apparent KD of K4 kissing-loop reporter” value was 137 nM.
